B1: NYNRIN peptide 1032-1047 (Protein NYNRIN), 16-mer library wild type / NSP3 UBl1 (ORF1ab Nsp3a Ub1, residues 819-925) (parent)
chain 1: PSLSEEILRALSLHDP
chain 2: APTKVTFGDDTVIEVQGYKSVNITFELDERIDKVLNEKCSAYTVELGTEVNEFACVVADAVIKTLQPVSELLTPLGIDLDEWSMATYYLFDESGEFKLASHMYCSFY
B2: AZIN2 peptide 1-16 (Antizyme inhibitor 2), 16-mer library wild type / NSP3 ADRP (ORF1ab Nsp3b ADRP, residues 1023-1192) (parent)
chain 1: MAGYLSESDFVMVEEG
chain 2: not shown
B3: TET3 peptide 458-473 (Methylcytosine dioxygenase TET3), 16-mer library wild type / NSP3 SUD-M (ORF1ab Nsp3c SUD-M, residues 1356-1493) (parent)
chain 1: DPMAELEQLLGSASDY
chain 2: LPSIISNEKQEILGTVSWNLREMLAHAEETRKLMPVCVETKAIVSTIQRKYKGIKIQEGVVDYGARFYFYTSKTTVASLINTLNDLNETLVTMPLGYVTHGLNLEEAARYMRSLKVPATVSVSSPDAVTAYNGYLTSS
B4: NEK9 peptide 736-751 (Serine/threonine-protein kinase Nek9), 16-mer library wild type / NSP9 (ORF1ab Nsp9, residues 4141-4253) (parent)
chain 1: NSSGLSIGTVFQSSSP
chain 2: NNELSPVALRQMSCAAGTTQTACTDDNALAYYNTTKGGRFVLALLSDLQDLKWARFPKSDGTGTIYTELEPPCRFVTDTPKGPKVKYLYFIKGLNNLNRGMVLGSLAATVRLQ

Variants of: B1
Conditions: with NSP3 UBl1 (ORF1ab Nsp3a Ub1, residues 819-925); bait immobilised on MaxiSorp plates (10 µg), library pre-cleared on GST, 2 h binding at 4 °C, five washes; one round per day, days 1-4; value from days 2 and 3; keep out of graded; scale: average fractional NGS count over selection days 2 and 3

Row | Variant | screen value
1 | chain 1 L13P | 0
2 | chain 1 D15G | 0
3 | chain 1 D15E | 0
4 | chain 1 D15K | 0
5 | chain 1 L11H | 0
6 | chain 1 A10M | 0
7 | chain 1 L8H | 0
8 | chain 1 I7T | 0
9 | chain 1 I7D | 0
10 | chain 1 L3A | 0
11 | chain 1 E5M | 0
12 | chain 1 E5H | 0
13 | chain 1 H14N | 0
14 | chain 1 H14F | 7.34e-06
15 | chain 1 S2R | 0
16 | chain 1 E6Q | 2.97e-05

Variants of: B2
Conditions: with NSP3 ADRP (ORF1ab Nsp3b ADRP, residues 1023-1192); bait immobilised on MaxiSorp plates (10 µg), library pre-cleared on GST, 2 h binding at 4 °C, five washes; one round per day, days 1-4; value from days 2 and 3; keep out of graded; scale: average fractional NGS count over selection days 2 and 3

Row | Variant | screen value
17 | chain 1 A2M | 0
18 | chain 1 A2H | 0
19 | chain 1 A2G | 0
20 | chain 1 L5M | 1.33e-05
21 | chain 1 V13P | 5.36e-05
22 | chain 1 V13G | 0
23 | chain 1 V13F | 1.65e-05
24 | chain 1 V13E | 4.94e-05
25 | chain 1 V13A | 1.13e-05
26 | chain 1 V13S | 3.26e-05
27 | chain 1 V13N | 6.59e-05
28 | chain 1 V13W | 4.62e-05
29 | chain 1 E15W | 0
30 | chain 1 E15M | 0
31 | chain 1 E15Y | 0
32 | chain 1 E15V | 2.58e-05
33 | chain 1 E15F | 0
34 | chain 1 E15A | 1.82e-05
35 | chain 1 E15K | 0
36 | chain 1 E14T | 1.06e-05

Row | Variant | screen value
37 | chain 1 E14H | 3.26e-05
38 | chain 1 E14G | 5.95e-05
39 | chain 1 E14A | 3.37e-05
40 | chain 1 E14V | 1.13e-05
41 | chain 1 E7A | 0
42 | chain 1 E7T | 0
43 | chain 1 E7S | 0
44 | chain 1 S6H | 0
45 | chain 1 S6G | 0
46 | chain 1 S6Q | 0
47 | chain 1 S6W | 0
48 | chain 1 S6T | 0
49 | chain 1 S8Q | 2.27e-05
50 | chain 1 S8D | 1.43e-05
51 | chain 1 S8N | 5.33e-05
52 | chain 1 S8F | 4.02e-05
53 | chain 1 G3P | 0
54 | chain 1 G3S | 2.71e-05
55 | chain 1 G3T | 0
56 | chain 1 V11R | 4.17e-05

Row | Variant | screen value
57 | chain 1 V11K | 2.1e-05
58 | chain 1 V11Q | 1.04e-05
59 | chain 1 V11N | 1.5e-05
60 | chain 1 G16M | 3.8e-05
61 | chain 1 G16W | 5.19e-05
62 | chain 1 M12W | 0
63 | chain 1 M12P | 6.03e-05
64 | chain 1 M12D | 6.55e-05
65 | chain 1 M12K | 0
66 | chain 1 M12Q | 0
67 | chain 1 M12G | 0
68 | chain 1 D9T | 2.66e-05
69 | chain 1 D9H | 2.63e-05
70 | chain 1 D9A | 1.5e-05
71 | chain 1 D9I | 2.23e-05
72 | chain 1 Y4F | 1.08e-05
73 | chain 1 F10W | 2.93e-05
74 | chain 1 F10S | 1.39e-05
75 | chain 1 F10R | 0
76 | chain 1 F10D | 0

Variants of: B3
Conditions: with NSP3 SUD-M (ORF1ab Nsp3c SUD-M, residues 1356-1493); bait immobilised on MaxiSorp plates (10 µg), library pre-cleared on GST, 2 h binding at 4 °C, five washes; one round per day, days 1-4; value from days 2 and 3; keep out of graded; scale: average fractional NGS count over selection days 2 and 3

Row | Variant | screen value
77 | chain 1 L10P | 0
78 | chain 1 L10R | 0
79 | chain 1 L10Q | 0
80 | chain 1 L10T | 0
81 | chain 1 G11A | 0
82 | chain 1 G11S | 0
83 | chain 1 G11H | 0
84 | chain 1 G11W | 0
85 | chain 1 G11I | 0
86 | chain 1 E7N | 1.67e-05
87 | chain 1 E7I | 0
88 | chain 1 E7K | 0
89 | chain 1 E7Y | 0
90 | chain 1 E7T | 0
91 | chain 1 E7G | 0
92 | chain 1 P2R | 0
93 | chain 1 P2W | 0
94 | chain 1 P2A | 0
95 | chain 1 P2H | 0
96 | chain 1 P2D | 0
97 | chain 1 Q8K | 0
98 | chain 1 Q8P | 0
99 | chain 1 Q8R | 0
100 | chain 1 Q8H | 0
101 | chain 1 Q8T | 0
102 | chain 1 Q8M | 0
103 | chain 1 Q8S | 0

Row | Variant | screen value
104 | chain 1 E5Q | 0
105 | chain 1 E5K | 0
106 | chain 1 L6S | 0
107 | chain 1 L6K | 0
108 | chain 1 L6R | 0
109 | chain 1 L6M | 0
110 | chain 1 L6W | 0
111 | chain 1 L9A | 0
112 | chain 1 L9T | 0
113 | chain 1 L9Y | 0
114 | chain 1 L9N | 0
115 | chain 1 D15G | 0
116 | chain 1 D15N | 0
117 | chain 1 D15K | 0
118 | chain 1 A13D | 0
119 | chain 1 A13N | 0
120 | chain 1 A13E | 0
121 | chain 1 A13V | 0
122 | chain 1 S12E | 0
123 | chain 1 S12G | 0
124 | chain 1 A4N | 0
125 | chain 1 A4L | 0
126 | chain 1 M3N | 0
127 | chain 1 M3Q | 0
128 | chain 1 M3T | 0
129 | chain 1 M3S | 0

Variants of: B4
Conditions: with NSP9 (ORF1ab Nsp9, residues 4141-4253); bait immobilised on MaxiSorp plates (10 µg), library pre-cleared on GST, 2 h binding at 4 °C, five washes; one round per day, days 1-4; value from days 2 and 3; keep out of graded; scale: average fractional NGS count over selection days 2 and 3

Row | Variant | screen value
130 | chain 1 P16L | 3.5e-05
131 | chain 1 P16Q | 0
132 | chain 1 P16N | 4.17e-05
133 | chain 1 P16T | 2.95e-05
134 | chain 1 P16V | 0.000367
135 | chain 1 P16K | 0.000119
136 | chain 1 P16M | 0
137 | chain 1 P16D | 0.000477
138 | chain 1 P16F | 0
139 | chain 1 S2G | 2.56e-05
140 | chain 1 S2H | 0
141 | chain 1 S2Q | 2.69e-05
142 | chain 1 S2P | 0.00012
143 | chain 1 S3E | 0.000394
144 | chain 1 S3V | 0
145 | chain 1 S3M | 5.44e-05
146 | chain 1 S3Q | 0.000703
147 | chain 1 S3H | 3.04e-05
148 | chain 1 S3D | 0.000508

Row | Variant | screen value
149 | chain 1 S3K | 0
150 | chain 1 S3W | 0.000185
151 | chain 1 S13G | 1.34e-05
152 | chain 1 S13D | 0.000121
153 | chain 1 S13L | 1.28e-05
154 | chain 1 S13A | 0
155 | chain 1 S13E | 0.000579
156 | chain 1 S13M | 0
157 | chain 1 S13H | 8.96e-05
158 | chain 1 S13T | 0.000105
159 | chain 1 S15A | 2.5e-05
160 | chain 1 S15M | 0.000159
161 | chain 1 S15K | 0
162 | chain 1 S15G | 3.5e-05
163 | chain 1 S15L | 2.69e-05
164 | chain 1 S15I | 4.92e-05
165 | chain 1 S6W | 0
166 | chain 1 S6L | 9.77e-05
167 | chain 1 S6A | 0.000439
